Tests used:
[1] = system: CFP-NNKLR-YFP-6xHis substrate (peptide E9)
[2] = system: CFP-LSGGR-YFP-6xHis substrate (peptide E2)
[3] = system: CFP-RGKTN-YFP-6xHis substrate (peptide D9)
[4] = system: CFP-VGSLR-YFP-6xHis substrate (peptide G1)
[5] = system: CFP-LSRDN-YFP-6xHis substrate (peptide E7)
[6] = system: CFP-NQRSS-YFP-6xHis substrate (peptide E5)
[7] = system: CFP-QRLRD-YFP-6xHis substrate (peptide F11)
[8] = system: CFP-RQTND-YFP-6xHis substrate (peptide C11)
[9] = system: CFP-LQRAI-YFP-6xHis substrate (peptide E8)
[10] = system: T1, CFP-PDRHM-YFP-6xHis substrate (peptide F3)
T1 sequence: GALGGPDRHMGST

[11] = system: T2, CFP-AYGYK-YFP-6xHis substrate (peptide E1)
T2 sequence: GALGGAYGYKGST

[12] = system: CFP-YQSLN-YFP-6xHis substrate (peptide F10)

human plasma kallikrein (PK), sequence (chain, as listed by the source): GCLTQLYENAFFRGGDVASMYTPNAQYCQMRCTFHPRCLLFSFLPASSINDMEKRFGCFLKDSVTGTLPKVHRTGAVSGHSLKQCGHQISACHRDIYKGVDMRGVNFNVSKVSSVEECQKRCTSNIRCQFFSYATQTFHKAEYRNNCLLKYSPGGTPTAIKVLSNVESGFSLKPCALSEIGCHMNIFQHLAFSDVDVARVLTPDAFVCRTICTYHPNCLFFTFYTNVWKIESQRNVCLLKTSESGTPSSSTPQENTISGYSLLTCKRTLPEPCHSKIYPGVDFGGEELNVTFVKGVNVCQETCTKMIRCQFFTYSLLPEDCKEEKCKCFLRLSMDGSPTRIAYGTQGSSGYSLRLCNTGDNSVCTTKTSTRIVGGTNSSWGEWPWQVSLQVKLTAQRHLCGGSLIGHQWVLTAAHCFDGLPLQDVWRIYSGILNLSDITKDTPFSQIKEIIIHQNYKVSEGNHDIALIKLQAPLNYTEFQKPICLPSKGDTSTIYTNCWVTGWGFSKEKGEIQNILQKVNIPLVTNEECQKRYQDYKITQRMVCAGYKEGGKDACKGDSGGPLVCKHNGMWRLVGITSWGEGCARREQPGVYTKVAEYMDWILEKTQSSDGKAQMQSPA

Row | Substance | Kcat/Km [1] | Kcat/Km [2] | Kcat/Km [3] | Kcat/Km [4] | Kcat/Km [5] | Kcat/Km [6] | Kcat/Km [7] | Kcat/Km [8] | Kcat/Km [9] | Kcat/Km [10] | Kcat/Km [11] | Kcat/Km [12]
1 | human kallikrein 2 (hK2) | 12000 M⁻¹ s⁻¹ | 14000 M⁻¹ s⁻¹ | 21000 M⁻¹ s⁻¹ | 21000 M⁻¹ s⁻¹ | 16000 M⁻¹ s⁻¹ | 14000 M⁻¹ s⁻¹ | 32000 M⁻¹ s⁻¹ | 23000 M⁻¹ s⁻¹ | 25000 M⁻¹ s⁻¹ | – | – | –
2 | human plasma kallikrein (PK) | – | – | – | – | – | 5000 M⁻¹ s⁻¹ | – | – | 5000 M⁻¹ s⁻¹ | – | – | –
3 | trypsin | 384000 M⁻¹ s⁻¹ | 4.68e+06 M⁻¹ s⁻¹ | 2.11e+06 M⁻¹ s⁻¹ | 270000 M⁻¹ s⁻¹ | 246000 M⁻¹ s⁻¹ | 2.07e+06 M⁻¹ s⁻¹ | 1.42e+06 M⁻¹ s⁻¹ | 260000 M⁻¹ s⁻¹ | 2.27e+06 M⁻¹ s⁻¹ | 319000 M⁻¹ s⁻¹ | 129000 M⁻¹ s⁻¹ | –
4 | prostate specific antigen (PSA, hK3) | – | – | – | – | – | – | – | – | – | – | – | L.C.
5 | human kallikrein hK1 | – | – | – | – | – | – | L.C. | – | – | – | – | –

— patent US20140341881
